Results reported in patent publication US9340596.

Columns and labels:
Experiment in all cases: cell-based or functional assay
[1] = target: death receptor
[2] = target: αVβ3 integrin (human) (UniProt P06756)
[3] = target: αVβ5 integrin (human) (UniProt P06756)
Sequence of αVβ5 integrin (human) (P06756 31-1048, chain 1 of 2): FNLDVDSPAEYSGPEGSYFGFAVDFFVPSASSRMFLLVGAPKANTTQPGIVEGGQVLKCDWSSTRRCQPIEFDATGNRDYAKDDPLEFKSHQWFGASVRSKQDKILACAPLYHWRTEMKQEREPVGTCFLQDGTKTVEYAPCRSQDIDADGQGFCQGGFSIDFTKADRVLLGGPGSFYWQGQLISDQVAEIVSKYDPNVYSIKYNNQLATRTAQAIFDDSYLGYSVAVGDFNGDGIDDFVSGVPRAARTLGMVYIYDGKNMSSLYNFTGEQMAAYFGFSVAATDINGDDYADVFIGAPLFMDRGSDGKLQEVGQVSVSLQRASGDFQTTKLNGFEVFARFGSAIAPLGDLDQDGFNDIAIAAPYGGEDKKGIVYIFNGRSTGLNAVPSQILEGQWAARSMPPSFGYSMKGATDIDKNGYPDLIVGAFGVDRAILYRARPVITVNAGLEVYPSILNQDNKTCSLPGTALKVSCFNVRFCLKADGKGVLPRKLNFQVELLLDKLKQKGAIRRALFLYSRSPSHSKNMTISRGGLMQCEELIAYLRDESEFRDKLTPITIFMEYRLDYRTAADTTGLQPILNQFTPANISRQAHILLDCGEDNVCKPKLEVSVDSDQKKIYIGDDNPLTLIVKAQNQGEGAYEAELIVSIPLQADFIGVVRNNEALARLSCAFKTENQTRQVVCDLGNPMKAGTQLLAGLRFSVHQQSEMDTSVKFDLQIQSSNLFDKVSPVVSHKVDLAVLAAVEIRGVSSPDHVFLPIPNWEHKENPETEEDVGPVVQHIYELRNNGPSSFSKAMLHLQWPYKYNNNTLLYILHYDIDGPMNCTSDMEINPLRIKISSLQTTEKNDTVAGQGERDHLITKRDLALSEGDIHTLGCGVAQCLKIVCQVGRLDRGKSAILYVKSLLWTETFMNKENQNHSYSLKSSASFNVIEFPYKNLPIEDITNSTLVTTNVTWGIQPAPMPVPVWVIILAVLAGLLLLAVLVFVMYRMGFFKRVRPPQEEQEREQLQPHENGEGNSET
Sequence of αVβ5 integrin (human) (P18084 24-799, chain 2 of 2, further chain): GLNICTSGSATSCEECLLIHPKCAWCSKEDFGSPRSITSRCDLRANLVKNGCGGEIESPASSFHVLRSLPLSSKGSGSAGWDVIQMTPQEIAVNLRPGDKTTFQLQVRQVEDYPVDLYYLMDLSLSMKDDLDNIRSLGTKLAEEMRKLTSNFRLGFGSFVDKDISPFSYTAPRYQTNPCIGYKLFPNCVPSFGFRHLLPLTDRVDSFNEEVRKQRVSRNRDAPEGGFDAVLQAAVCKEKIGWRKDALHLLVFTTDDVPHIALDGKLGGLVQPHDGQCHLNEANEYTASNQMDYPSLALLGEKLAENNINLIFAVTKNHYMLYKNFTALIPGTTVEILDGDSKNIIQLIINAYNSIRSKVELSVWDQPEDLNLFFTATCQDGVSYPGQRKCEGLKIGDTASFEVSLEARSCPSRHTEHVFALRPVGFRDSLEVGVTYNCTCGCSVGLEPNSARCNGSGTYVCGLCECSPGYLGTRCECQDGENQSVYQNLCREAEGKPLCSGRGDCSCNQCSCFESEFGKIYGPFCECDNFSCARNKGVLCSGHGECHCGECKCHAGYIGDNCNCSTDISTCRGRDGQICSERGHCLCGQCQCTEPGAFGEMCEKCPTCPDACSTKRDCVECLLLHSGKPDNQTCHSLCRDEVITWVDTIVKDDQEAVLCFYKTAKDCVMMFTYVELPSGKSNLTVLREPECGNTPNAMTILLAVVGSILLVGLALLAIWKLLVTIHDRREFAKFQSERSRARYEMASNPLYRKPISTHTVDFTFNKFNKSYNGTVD

Sequence of αVβ3 integrin (human) (P06756 31-1048, chain 1 of 2): as the sequence (P06756 31-1048, chain 1 of 2) above
Sequence of αVβ3 integrin (human) (P05106 27-788, chain 2 of 2, further chain): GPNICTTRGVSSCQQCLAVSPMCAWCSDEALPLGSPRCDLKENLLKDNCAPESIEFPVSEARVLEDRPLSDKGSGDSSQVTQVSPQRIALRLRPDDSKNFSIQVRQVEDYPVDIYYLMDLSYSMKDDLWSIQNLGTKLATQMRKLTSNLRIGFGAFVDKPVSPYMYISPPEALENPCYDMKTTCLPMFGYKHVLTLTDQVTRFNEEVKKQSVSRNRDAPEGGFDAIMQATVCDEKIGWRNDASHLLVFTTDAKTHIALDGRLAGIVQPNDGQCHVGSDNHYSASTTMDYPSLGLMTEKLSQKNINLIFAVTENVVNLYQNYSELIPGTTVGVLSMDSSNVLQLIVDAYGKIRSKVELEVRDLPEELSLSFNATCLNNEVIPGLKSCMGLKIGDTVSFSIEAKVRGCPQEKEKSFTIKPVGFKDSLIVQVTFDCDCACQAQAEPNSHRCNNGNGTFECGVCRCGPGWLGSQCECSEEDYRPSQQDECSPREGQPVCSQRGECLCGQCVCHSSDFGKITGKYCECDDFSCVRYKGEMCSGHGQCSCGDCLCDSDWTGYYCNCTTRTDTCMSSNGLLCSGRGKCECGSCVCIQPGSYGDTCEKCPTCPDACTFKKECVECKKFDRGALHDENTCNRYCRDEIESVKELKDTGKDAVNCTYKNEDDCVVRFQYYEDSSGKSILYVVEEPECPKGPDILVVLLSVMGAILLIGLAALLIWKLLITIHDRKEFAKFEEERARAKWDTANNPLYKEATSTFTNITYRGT

RGD-L-TRAIL (human TRAIL variant: short peptide …, connecting peptide of five glycines, TRAIL) (from UniProt P50591 114-281)
apoptosis rate of COLO-205 cells at 2.43 ng/ml (Annexin V-FITC and PI double staining) [1]: 87.5%
caspase-8 and caspase-3 activity in Jurkat cells after two hours, against the same dose of wild-type TRAIL [1]: 2.5 times
medial lethal dose on COLO-205 cells [1]: 0.37 ng/mL
medial lethal dose on Jurkat cells [1]: 0.41 ng/mL
medial lethal dose on MDA-MB-231 cells [1]: 1.2 ng/mL
fold reduction of the medial lethal dose against wild-type TRAIL, COLO-205 cells [2]: 9.5 times
fold reduction of the medial lethal dose against wild-type TRAIL, Jurkat cells [2]: 16.3 times
fold reduction of the medial lethal dose against wild-type TRAIL, MDA-MB-231 cells [2]: 1.9 times
fold reduction of the medial lethal dose against wild-type TRAIL, COLO-205 cells [3]: 9.5 times
fold reduction of the medial lethal dose against wild-type TRAIL, Jurkat cells [3]: 16.3 times
fold reduction of the medial lethal dose against wild-type TRAIL, MDA-MB-231 cells [3]: 1.9 times
